In paper PMC6170424 one finds stoichiometry N data, which are given here for three substances.

One may read the stoichiometry N as a count of units in the complex or per binding partner.

The target of assay [1] is Ef-SOD1a^Δ (Euplotes focardii Cu,Zn superoxide dismutase 1a without its signal peptide) (Euplotes focardii). Kind of assay: SEC; comparison of the SEC chromatographic profiles of Ef-SOD1a and Ef-SOD1b; data not shown. (In gel filtration, larger molecules generally elute earlier.)
The target of assay [2] is Ef-SOD1b (Euplotes focardii Cu,Zn superoxide dismutase 1b) (Euplotes focardii). As to the kind of experiment: SEC-MALS; 200 µl of protein (1 mg/ml) on Superose12 10/300 GL; 50 mM sodium phosphate buffer, NaCl 150 mM, pH 7.5.
Assay [3] has as its target Ef-SOD2^Δ (Euplotes focardii Mn superoxide dismutase without its mitochondrial signal peptide) (Euplotes focardii). The assay is described as above.

For “Ef-SOD1a^Δ (Euplotes focardii Cu,Zn superoxide dismutase 1a without its signal peptide) (enzyme)”, the stoichiometry N in assay [1] was determined as 2.
For “Ef-SOD1b (Euplotes focardii Cu,Zn superoxide dismutase 1b) (enzyme)”, in assay [2], the stoichiometry N worked out at 2.
For “Ef-SOD2^Δ (Euplotes focardii Mn superoxide dismutase without its mitochondrial signal peptide) (enzyme)”, the stoichiometry N in assay [3] stood at 4.
